# Laboratory results: patent US20190022206A1 (UNIVERSITY OF COPENHAGEN, published 2019)
# T1: biotinylated HPV16 Avi-L1 VLP, L1avi1 (H4-loop, HPV16) (Human papillomavirus type 16, UniProt P03101 14-505)
# T1 construct: also called VLP1; Avi-L1 (H4-βJ coil)
# T1 sequence: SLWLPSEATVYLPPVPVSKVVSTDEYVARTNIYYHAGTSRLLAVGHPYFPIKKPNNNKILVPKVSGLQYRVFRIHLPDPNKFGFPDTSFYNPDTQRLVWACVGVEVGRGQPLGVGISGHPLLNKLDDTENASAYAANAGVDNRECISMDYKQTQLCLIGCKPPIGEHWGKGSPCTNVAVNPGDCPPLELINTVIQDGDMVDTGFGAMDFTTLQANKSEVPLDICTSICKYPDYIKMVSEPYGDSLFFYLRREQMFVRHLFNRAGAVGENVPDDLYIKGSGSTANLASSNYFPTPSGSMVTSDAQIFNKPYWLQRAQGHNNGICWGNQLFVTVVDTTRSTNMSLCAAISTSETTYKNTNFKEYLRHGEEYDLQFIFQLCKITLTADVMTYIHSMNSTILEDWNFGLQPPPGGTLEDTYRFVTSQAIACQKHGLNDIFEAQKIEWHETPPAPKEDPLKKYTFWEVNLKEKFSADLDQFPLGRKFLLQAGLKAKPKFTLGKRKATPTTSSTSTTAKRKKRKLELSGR
# T2: biotinylated HPV16 Avi-L1 VLP, L1avi3 (DE-loop, HPV16) (Human papillomavirus type 16, UniProt P03101 2-505)
# T2 construct: also called VLP3; Avi-L1 (DE)
# T2 sequence: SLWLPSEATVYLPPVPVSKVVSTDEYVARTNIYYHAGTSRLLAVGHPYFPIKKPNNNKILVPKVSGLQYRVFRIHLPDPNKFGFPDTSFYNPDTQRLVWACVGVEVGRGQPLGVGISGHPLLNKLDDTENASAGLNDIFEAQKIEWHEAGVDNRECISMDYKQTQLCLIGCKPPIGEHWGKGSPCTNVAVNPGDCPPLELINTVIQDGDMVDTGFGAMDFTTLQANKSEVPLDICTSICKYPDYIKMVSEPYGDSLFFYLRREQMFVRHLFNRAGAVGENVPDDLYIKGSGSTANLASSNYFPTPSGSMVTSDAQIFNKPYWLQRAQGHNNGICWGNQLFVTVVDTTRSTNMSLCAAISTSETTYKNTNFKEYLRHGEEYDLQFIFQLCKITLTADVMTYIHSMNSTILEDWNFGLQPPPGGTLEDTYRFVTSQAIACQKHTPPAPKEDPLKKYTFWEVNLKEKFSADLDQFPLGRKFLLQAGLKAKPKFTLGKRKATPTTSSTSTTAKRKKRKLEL
# Assays:
# [1] = biological target: T1, biotinylated HPV16 Avi-L1 VLP, L1avi1 …; test: biotinylated VLPs mixed with excess mSA-antigen, density gradient ultracentrifugation, SDS-PAGE
# [2] = biological target: T2, biotinylated HPV16 Avi-L1 VLP, L1avi3 …; test: coupling: biotinylated VLPs mixed with excess mSA-antigen, density gradient ultracentrifugation, SDS-PAGE
Binder,binding result [1],binding result [2]
"mSA-ID1ID2a-HIS (other, mSA fused at the amino terminus by Gly-Gly-Ser to the ID1-ID2a domains of VAR2CSA, C-terminal 6x histidine tag; made in baculovirus-infected High-Five cells; also called A4; mSA-VAR2CSA) AEAGITGTWYNQHGSTFTVTAGADGNLTGQYENRAQGTGCQNSPYTLTGRYNGTKLEWRVEWNNSTENCHSRTEWRGQYQGGAEARINTQWNLTYEGGSGPATEQGQDTFTKVKGGSNYIKGDPYFAEYATKLSFILNPSDANNPSGETANHNDEACNCNESGISSVGQAQTSGPSSNKTCITHSSIKTNKKKECKDVKLGVRENDKDLKICVIEDTSLSGVDNCCCQDLLGILQENCSDNKRGSSSNDSCDNKNQDECQKKLEKVFASLTNGYKCDKCKSGTSRSKKKWIWKKSSGNEEGLQEEYANTIGLPPRTQSLYLGNLPKLENVCEDVKDINFDTKEKFLAGCLIVSFHEGKNLKKRYPQNKNSGNKENLCKALEYSFADYGDLIKGTSIWDNEYTKDLELNLQNNFGKLFGKYIKKNNTAEQDTSYSSLDELRESWWNTNKKYIWTAMKHGAEMNITTCNADGSVTGSGSSCDDIPTIDLIPQYLRFLQEWVENFCEQRQAKVKDVITNCKSCKESGNKCKTECKTKCKDECEKYKKFIEACGTAGGGIGTAGSPWSKRWDQIYKRYSKHIEDAKRNRKAGTKNCGTSSTTNAAASTDENKCVQSDIDSFFKHLIDIGLTTPSSYLSNVLDDNICGADKAPWTTYTTYTTTEKCNKERDKSKSQSSDTLVVVNVPSPLGNTPYRYKYACQCKIPTNEETCDDRKEYMNQWSCGSARTMKRGYKNDNYELCKYNGVDVKPTTVRSNSSKLDHHHHHH",no binding,binds
"mSA-PfRH5-HIS (other, mSA fused by GGS to PfRH5, C-terminal His tag; also called A9) AEAGITGTWYNQHGSTFTVTAGADGNLTGQYENRAQGTGCQNSPYTLTGRYNGTKLEWRVEWNNSTENCHSRTEWRGQYQGGAEARINTQWNLTYEGGSGPATEQGQDTFTKVKGGSLSFENAIKKTKNQENNLTLLPIKSTEEEKDDIKNGKDIKKEIDNDKENIKTNNAKDHSTYIKSYLNTNVNDGLKYLFIPSHNSFIKKYSVFNQINDGMLLNEKNDVKNNEDYKNVDYKNVNFLQYHFKELSNYNIANSIDILQEKEGHLDFVIIPHYTFLDYYKHLSYNSIYHKYSTYGKYIAVDAFIKKINETYDKVKSKCNDIKNDLIATIKKLEHPYDINNKNDDSYRYDISEEIDDKSEETDDETEEVEDSIQDTDSNHTPSNKKKNDLMNRTFKKMMDEYNTKKKKLIKCIKNHENDFNKICMDMKNYGTNLFEQLSCYNNNFCNTNGIRFHYDEYIHKLILSVKSKNLNKDLSDMTNILQQSELLLTNLNKKMGSYIYIDTIKFIHKEMKHIFNRIEYHTKIINDKTKIIQDKIKLNIWRTFQKDELLKRILDMSNEYSLFITSDHLRQMLYNTFYSKEKHLNNIFHHLIYVLQMKFNDVPIKMEYFQTYKKNKPLTQHHHHHH",no binding,binds
"mSA-Pfs25-HIS (other, also called A10) AEAGITGTWYNQHGSTFTVTAGADGNLTGQYENRAQGTGCQNSPYTLTGRYNGTKLEWRVEWNNSTENCHSRTEWRGQYQGGAEARINTQWNLTYEGGSGPATEQGQDTFTKVKGGSNKLYSLFLFLFIQLSIKYNNAKVTVDTVCKRGFLIQMSGHLECKCENDLVLVNEETCEEKVLKCDEKTVNKPCGDFSKCIKIDGNPVSYACKCNLGYDMVNNVCIPNECKNVTCGNGKCILDTSNPVKTGVCSCNIGKVPNVQDQNKCSKDGETKCSLKCLKENETCKAVDGIYKCDCKDGFIIDNESSICTAFSAYNILNLSIMFILFSVCFFIM",no binding,–
"HIS-GMZ2ggsmSA (other, also called A7) GSTSENRNKRIGGPKLRGNVTSNIKFPSDNKGKIIRGSNDKLNKNSEDVLEQSEKSLVSENVPSGLDIDDIPKESIFIQEDQEGQTHSELNPETSEHSKDLNNNGSKNESSDIISENNKSNKVQNHFESLSDLELLENSSQDNLDKDTISTEPFPNQKHKDLQQDLNDEPLEPFPTQIHKDYKEKNLINEEDSEPFPRQKHKKVDNHNEEKNVFHENGSANGNQGSLKLKSFDEHLKDEKIENEPLVHENLSIPNDPIEQILNQPEQETNIQEQLYNEKQNVEEKQNSQIPSLDLKEPTNEDILPNHNPLENIKQSESEINHVQDHALPKENIIDKLDNQKEHIDQSQHNINVLQENNINNHQLEPQEKPNIESFEPKNIDSEIILPENVETEEIIDDVPSPKHSNHETFEEETSESEHEEAVSEKNAHETVEHEETVSQESNPEKADNDGNVSQNSNNELNENEFVESEKSEHEARSKAKEASSYDYILGWEFGGGVPEHKKEENMLSHLYVSSKDKENISKENDDVLDEKEEEAEETEEEELEEKNEEETESEISEDEEEEEEEEEKEEENDKKKEQEKEQSNENNDQKKDMEAQNLISKNQNNNEKNVKEAAESIMKTLAGLIKGNNQIDSTLKDLVEELSKYFKNHGGSGAEAGITGTWYNQHGSTFTVTAGADGNLTGQYENRAQGTGCQNSPYTLTGRYNGTKLEWRVEWNNSTENCHSRTEWRGQYQGGAEARINTQWNLTYEGGSGPATEQGQDTFTKVK",no binding,binds
"HIS-RO-mSA (other, also called A6) GSTSENRNKRIGGPKLRGNVTSNIKFPSDNKGKIIRGSNDKLNKNSEDVLEQSEKSLVSENVPSGLDIDDIPKESIFIQEDQEGQTHSELNPETSEHSKDLNNNGSKNESSDIISENNKSNKVQNHFESLSDLELLENSSQDNLDKDTISTEPFPNQKHKDLQQDLNDEPLEPFPTQIHKDYKEKNLINEEDSEPFPRQKHKKVDNHNEEKNVFHENGSANGNQGSLKLKSFDEHLKDEKIENEPLVHENLSIPNDPIEQILNQPEQETNIQEQLYNEKQNVEEKQNSQIPSLDLKEPTNEDILPNHNPLENIKQSESEINHVQDHALPKENIIDKLDNQKEHIDQSQHNINVLQENNINNHQLEPQEKPNIESFEPKNIDSEIILPENVETEEIIDDVPSPKHSNHETFEEETSESEHEEAVSEKNAHETVEHEETVSQESNPEKADNDGNVSQNSNNELNENEFVESEKSEHEAGGSGAEAGITGTWYNQHGSTFTVTAGADGNLTGQYENRAQGTGCQNSPYTLTGRYNGTKLEWRVEWNNSTENCHSRTEWRGQYQGGAEARINTQWNLTYEGGSGPATEQGQDTFTKVK",no binding,binds
"mSA-RO-HIS (other, also called A5) AEAGITGTWYNQHGSTFTVTAGADGNLTGQYENRAQGTGCQNSPYTLTGRYNGTKLEWRVEWNNSTENCHSRTEWRGQYQGGAEARINTQWNLTYEGGSGPATEQGQDTFTKVKGGSTSENRNKRIGGPKLRGNVTSNIKFPSDNKGKIIRGSNDKLNKNSEDVLEQSEKSLVSENVPSGLDIDDIPKESIFIQEDQEGQTHSELNPETSEHSKDLNNNGSKNESSDIISENNKSNKVQNHFESLSDLELLENSSQDNLDKDTISTEPFPNQKHKDLQQDLNDEPLEPFPTQIHKDYKEKNLINEEDSEPFPRQKHKKVDNHNEEKNVFHENGSANGNQGSLKLKSFDEHLKDEKIENEPLVHENLSIPNDPIEQILNQPEQETNIQEQLYNEKQNVEEKQNSQIPSLDLKEPTNEDILPNHNPLENIKQSESEINHVQDHALPKENIIDKLDNQKEHIDQSQHNINVLQENNINNHQLEPQEKPNIESFEPKNIDSEIILPENVETEEIIDDVPSPKHSNHETFEEETSESEHEEAVSEKNAHETVEHEETVSQESNPEKADNDGNVSQNSNNELNENEFVESEKSEHEARSKAKEASSYDYILGWEFGGGVPEHKKEENMLSHLYVSSKDKENISKENDDVLDEKEEEAEETEEEELEEKNEEETESEISEDEEEEEEEEEKEEENDKKKEQEKEQSNENNDQKKDMEAQNLISKNQNNNEKNVKEAAESIMKTLAGLIKGNNQIDSTLKDLVEELSKYFKNHRSHHHHHH",no binding,–
"HIS-GMZ2T:ggsmSA (other, also called A8) GSTSENRNKRIGGPKLRGNVTSNIKFPSDNKGKIIRGSNDKLNKNSEDVLEQSEKSLVSENVPSGLDIDDIPKESIFIQEDQEGQTHSELNPETSEHSKDLNNNGSKNESSDIISENNKSNKVQNHFESLSDLELLENSSQDNLDKDTISTEPFPNQKHKDLQQDLNDEPLEPFPTQIHKDYKEKNLINEEDSEPFPRQKHKKVDNHNEEKNVFHENGSANGNQGSLKLKSFDEHLKDEKIENEPLVHENLSIPNDPIEQILNQPEQETNIQEQLYNEKQNVEEKQNSQIPSLDLKEPTNEDILPNHNPLENIKQSESEINHVQDHALPKENIIDKLDNQKEHIDQSQHNINVLQENNINNHQLEPQEKPNIESFEPKNIDSEIILPENVETEEIIDDVPSPKHSNHETFEEETSESEHEEAVSEKNAHETVEHEETVSQESNPEKADNDGNVSQNSNNELNENEFVESEKSEHEARSKTKEYAEKAKNAYEKAKNAYQKANQAVLKAKEASSYDYILGWEFGGGVPEHKKEENMLSHLYVSSKDKENISKENDDVLDEKEEEAEETEEEELEGGSGAEAGITGTWYNQHGSTFTVTAGADGNLTGQYENRAQGTGCQNSPYTLTGRYNGTKLEWRVEWNNSTENCHSRTEWRGQYQGGAEARINTQWNLTYEGGSGPATEQGQDTFTKVK",no binding,binds
